{"source": "paper doi:10.1101/2024.08.21.608925", "key": {"[1]": {"biological_target": "Multiple peptide resistance factor (MprF) from Pseudomonas aeruginosa, wild type, CPD-His construct after IP6 cleavage (Pseudomonas aeruginosa)", "assay": "cryo-EM structure"}, "[2]": {"biological_target": "Multiple peptide resistance factor (MprF) from Pseudomonas aeruginosa, wild type, CPD-His construct after IP6 cleavage (Pseudomonas aeruginosa)", "assay": "cryo-EM structure", "remark": "listed apart in the source"}}, "note": "Like-named read-outs stand apart in the source and are kept apart here."}
{"substance": "Multiple peptide resistance factor (MprF) from Pseudomonas aeruginosa, wild type, CPD-His construct after IP6 cleavage (enzyme)", "values": [{"measurement": "stoichiometry N", "setting": "[1]", "value": 2}, {"measurement": "stoichiometry N", "setting": "[2]", "value": 2}]}
